Assay results taken from publication PMC3526301.

B1: TBV-08 without primer sites (structured_DNA)
DNA: GGTTGGTGTGGTTGGTGAGACCTTGCATGCGACTTGGTGAGCACGTGAGAAGTCCGTGGTAGGGCAGGTTGGGGTGACT
B2: TBV-08 (clone 8) (structured_DNA)
DNA: AGCAGCACAGAGGTCAGATGGGTTGGTGTGGTTGGTGAGACCTTGCATGCGACTTGGTGAGCACGTGAGAAGTCCGTGGTAGGGCAGGTTGGGGTGACTCCTATGCGTGCTACCGTGAA
B3: clone 1 (structured_DNA)
DNA: AGCAGCACAGAGGTCAGATGGGTTGGTGTGGTTGGAGCGGACTTTACCTGTGTCAGCTGCGGGGGCCGCAAGTCCGTGGTAGGGCAGGTTGGGGTGACTCCTATGCGTGCTACCGTGAA
B4: clone 6 (structured_DNA)
DNA: AGCAGCACAGAGGTCAGATGGGTTGGTGTGGTTGGCGAGGACGCTGTGTGCGCTTCGAGGGCCTAGAAGGAGTCCGTGGTAGGGCAGGTTGGGGTGACTCCTATGCGTGCTACCGTGAA
B5: clone 2 (structured_DNA)
DNA: AGCAGCACAGAGGTCAGATGGGTTGGTGTGGTTGGCTGATACCGGAAGGGGTGTGTGTAGCGCGGTTGAGAGTCCGTGGTAGGGCAGGTTGGGGTGACTCCTATGCGTGCTACCGTGAA
B6: clone 7 (structured_DNA)
DNA: AGCAGCACAGAGGTCAGATGGGTTGGTGTGGTTGGCTCTGATAACCCGGGGCTGTGGTGCGCCAGGTAGGAGTCCGTGGTAGGGCAGGTTGGGGTGACTCCTATGCGTGCTACCGTGAA
B7: clone 5 (structured_DNA)
DNA: AGCAGCACAGAGGTCAGATGGGTTGGTGTGGTTGGCATTTTGACCGAATGACGTTAGCAAAATATGTTAGAGTCCGTGGTAGGGCAGGTTGGGGTGACTCCTATGCGTGCTACCGTGAA
B8: clone 10 (structured_DNA)
DNA: AGCAGCACAGAGGTCAGATGGGTTGGTGTGGTTGGTTTGCCGATGTGTGGACAGCATGTGGGGTAGAGCGAGTCCGTGGTAGGGCAGGTTGGGGTGACTCCTATGCGTGCTACCGTGAA
B9: clone 4 (structured_DNA)
DNA: AGCAGCACAGAGGTCAGATGGGTTGGTGTGGTTGGCTGGTCTGGGGGCGTTTACTGGGCGCGCATTTTAAAGTCCGTGGTAGGGCAGGTTGGGGTGACTCCTATGCGTGCTACCGTGAA
B10: clone 9 (structured_DNA)
DNA: AGCAGCACAGAGGTCAGATGGGTTGGTGTGGTTGGCATTCGTAACTATGGGGTTCCTGTATTGGTATAGGAGTCCGTGGTAGGGCAGGTTGGGGTGACTCCTATGCGTGCTACCGTGAA
B11: clone 3 (structured_DNA)
DNA: AGCAGCACAGAGGTCAGATGGGTTGGTGTGGTTGGTGAGTCGACTGTGTGCCTCAAGTAGAACGTAGGTGAGTCCGTGGTAGGGCAGGTTGGGGTGACTCCTATGCGTGCTACCGTGAA

Target: T1, human alpha-thrombin (Homo sapiens, UniProt P00734;P00734 315-363;364-622)
Assay: bead-based fluorescence binding; apparent Kd; Figure S7 legend gives 430 pM; 50 mM Tris, 100 mM NaCl, 1 mM MgCl2, 5 mM KCl, 1 mM CaCl2, 0.01% Tween 20, pH 7.5 (selection buffer), 1 h room temperature, wa

Binder | Kd
B1 | 440 pM

Target: T1, human alpha-thrombin
Assay: bead-based fluorescence binding; apparent Kd; 50 mM Tris, 100 mM NaCl, 1 mM MgCl2, 5 mM KCl, 1 mM CaCl2, 0.01% Tween 20, pH 7.5 (selection buffer), 1 h room temperature, wa

Binder | Kd
B2 | 8.1 pM

Target: T1, human alpha-thrombin
Assay: bead-based fluorescence binding; 50 pM aptamer; 50 mM Tris, 100 mM NaCl, 1 mM MgCl2, 5 mM KCl, 1 mM CaCl2, 0.01% Tween 20, pH 7.5 (selection buffer), 1 h room temperature, wa

Binder | binding result
B3 | binds
B4 | binds
B5 | binds
B6 | binds
B7 | binds
B8 | binds
B9 | binds
B10 | binds
B11 | binds
